Assay results as given in paper PMC10659578, “Mechanism of stepwise electron transfer in six-transmembrane epithelial antigen of the prostate (STEAP) 1 and 2” (eLife, 2023).

What was measured:
[1] = target: Rabbit six-transmembrane epithelial antigen of the prostate 1 (STEAP1) (rabbit)
[2] = target: Rabbit six-transmembrane epithelial antigen of the prostate 1 (STEAP1) (rabbit); assay: BLI; STEAP1 immobilised on amine reactive second-generation biosensors (EDC/Sulfo-NHS); b5R at 20, 10, 5, 2.5, 1.3 and 0.6 uM; 30 C, 1000 rpm; 20 mM HEPES pH 7.5, 150 mM NaCl, 0.1% LMNG, 0.1% BSA; KD from equilibrium responses (Req) against [b5R]

rate constant of the B to C conversion (reduction of the heme of 1.5 uM STEAP1 pre-incubated with 1.5 uM b5R after mixing with 10 uM NADH; rapid-scan stopped flow, anaerobic) [1]: 0.13 s^–1
Kd [2]: 5.9 µM
B1: Mouse cytochrome b5 reductase, soluble form (residues 24-301) (enzyme)
chain: SKVPLKQGRSLMDWIRLTKSGKDLTGLKGGLIEVTEEELKKHNKKEDCWICIRGFVYNVSPYMEYHPGGEDELMRAAGADGTDLFNEVHRWVNYESMLKECLVGRMAVKPAVPKDCHEGKRVLNGMLPKSQMSDTLPRDVTDTLPREDLSSPSYDWFQTESSVTIVVYTKQKNISLDSVIVDLQDDSLRAEAVIKDHSYLVHVGLSHEVQENFSVRVIENVGKIEIVLQKKESVSWQCLGDHLEKHDSFIPKKDTGLYYRRCQLISKEDVTHDTRLFC
